Data from PMC5838018, “The Conserved ESCRT-III Machinery Participates in the Phagocytosis of Entamoeba histolytica” (Frontiers in Cellular and Infection Microbiology, 2018).

B1: EhVps20 (natural protein)
chain: MLNRFIGKNEEPSIDETHAILESRVTDLDQKIVDLDRQIRQNIEMSHKTTGAESQRYKQKALMLLKQKKQHEQHRDITERHQMNLENVQFQVDQMKDYKKVYDAMAASNRQMKLISRQFDINSIEDVQDSMMNFAEDQQEFGDILSQDITNMDLNELDDELAELGDSMFEGDIQIPESDGFGSVPITNEPFRQKEESQPDDKKFAI
notes: EhVps20, Entamoeba histolytica ESCRT-III protein, predicted 206 amino acids, endogenous in trophozoites; also called EhVps20 protein; source: endogenous, E. histolytica trophozoites (lysate for immunoprecipitation; fixed, permeabilized cells for flow cytometry)
B2: EhVps2 (natural protein)
chain: MSRLFHKKTPQEIVREQKLNISKSIREITRESKRLEREEVRLTNEIRKMARLGRTNTVKVMAADLVKTKKQIDKLQVVIAQLNSTKMKLTEMSSMVAVTEAMNGVTNAMRKVNEATKLPAMQKVMNDFEKQNAELGIKNTMVSDMVNEGYEGDDIEEETELEVDKVLTEIGLDVENGLKPVPETRQRNTRLKERRQVQMEGGVKTRNEGNEQPEDLDTPGSRVPKAFNEGEDDEDEDDIVSRIANL
notes: EhVps2, Entamoeba histolytica ESCRT-III protein, endogenous in trophozoites; also called EhVps2 protein; source: endogenous, E. histolytica trophozoites (lysate for immunoprecipitation; fixed, permeabilized cells for flow cytometry)
B3: EhVps24 (natural protein)
chain: MGNLNSQTVDNSFQQKQFELKVNRDNLSKREKEYQNNIEKLNKEARKYCRKGDKENAKRQIKLRTLYETNLKEIRCYLDQTETILIQLEASKRNYDVAKLMDESNKEIKKILNKIPKNFIEEIINTKKENSDKLKEIDSLYEQLNDIDNENQIEQELNKLALEVMSEKEGGIEAVKNEVIAESLPEVNSQSDMLISKQNIVIETF
notes: EhVps24, Entamoeba histolytica ESCRT-III protein, endogenous in trophozoites; also called EhVps24 protein; source: endogenous, E. histolytica trophozoites (lysate for immunoprecipitation; fixed, permeabilized cells for flow cytometry)

How the values were obtained:
EhVps32 = target: T1, EhVps32 (Entamoeba histolytica (endogenous in …, UniProt C4M1A5 1-204)); experiment: flow cytometry on cells; PFA-fixed, Triton X-100 permeabilized trophozoites after 0, 5 and 30 min of erythrophagocytosis, stained with couples of primary antibodies and secondary antibodies with distinct fluorochromes; percent association of each couple; details: partners not purified
T1 construct: EhVps32, Entamoeba histolytica ESCRT-III protein (ortholog of yeast Snf7/Vps32 and human CHMP4), endogenous in trophozoites; Precipitated and detected with the mouse polyclonal α-rEhVps32 antibody; also called EhVps32 protein; source: endogenous, E. histolytica trophozoites (lysate for immunoprecipitation; fixed, permeabilized cells for flow cytometry)
T1 sequence: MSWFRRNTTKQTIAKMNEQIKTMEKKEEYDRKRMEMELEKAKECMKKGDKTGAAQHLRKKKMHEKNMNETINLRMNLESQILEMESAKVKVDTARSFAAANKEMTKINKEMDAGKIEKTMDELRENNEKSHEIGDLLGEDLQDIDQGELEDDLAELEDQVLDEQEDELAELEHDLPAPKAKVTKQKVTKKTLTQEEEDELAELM

EhVps24 = target: B3; experiment: as above; details: partners not purified

Row | Binder | percent interaction, 30 min of erythrophagocytosis (EhVps32) [%] | percent interaction, 30 min of erythrophagocytosis (EhVps24) [%]
1 | B1 | ~47 | –
2 | B2 | – | 10
3 | B3 | ~47 | –
